# Experimental data from patent publication US9988424.
# pEC50, pIC50, pKd: −log10 of the molar value. Where two headings read alike, the source gives them in different places.
# How the values were obtained:
# [1] = biological target: C.CAP206 gp140, natively deglycosylated (HIV-1); assay: ELISA
# [2] = biological target: B.JRFL gp140CF (HIV-1) (UniProt P20871); assay: ELISA
# [3] = biological target: B.6240 gp140C (HIV-1); assay: ELISA
# [4] = biological target: AE.A244 V1V2 Tags (HIV-1); assay: ELISA
# [5] = biological target: Env of CM244NW.6.I181L virus (HIV-1); assay: cell-based or functional assay
# [6] = biological target: Env of 1051.C22.LucR.T2A.ecto virus (HIV-1); assay: cell-based or functional assay
# [7] = biological target: Env of CM235-2.LucR.T2A.ecto virus (HIV-1); assay: cell-based or functional assay
# [8] = biological target: Env of TH023.6.I181L virus (HIV-1); assay: cell-based or functional assay
# [9] = biological target: Env of 427299.c12.Q169K virus (HIV-1); assay: cell-based or functional assay
# [10] = biological target: Env of 92TH023 K169Q virus (HIV-1); assay: cell-based or functional assay
# [11] = biological target: Env of 703357.c02 virus (HIV-1); assay: cell-based or functional assay
# [12] = biological target: Env of SC22.3C2.LucR.T2A.ecto virus (HIV-1); assay: cell-based or functional assay
# [13] = biological target: Env of 703357.2.I181L virus (HIV-1); assay: cell-based or functional assay
# [14] = biological target: Env of CM244.c01.ETH2220LucR.T2A.4 virus (HIV-1); assay: cell-based or functional assay
# [15] = biological target: Env of 703357.2.Q169KR170QI181L virus (HIV-1); assay: cell-based or functional assay
# [16] = biological target: Env of AE.CM244 virus (HIV-1); assay: cell-based or functional assay
# [17] = biological target: Env of Ce1176_A3.LucR.T2A.ecto virus (HIV-1); assay: cell-based or functional assay
# [18] = biological target: Env of 703357.2.Q169KR170Q virus (HIV-1); assay: cell-based or functional assay
# [19] = biological target: Env of AE.92TH023 virus (HIV-1); assay: cell-based or functional assay
# [20] = biological target: Env of 427299.c12.H81L virus (HIV-1); assay: cell-based or functional assay
# [21] = biological target: Env of RHPA.LucR.T2A.ecto virus (HIV-1); assay: cell-based or functional assay
# [22] = biological target: Env of WITO.LucR.T2A.ecto virus (HIV-1); assay: cell-based or functional assay
# [23] = biological target: Env of 703357.2.Q169K virus (HIV-1); assay: cell-based or functional assay
# [24] = biological target: Env of Du151.2.LucR.T2A.ecto virus (HIV-1); assay: cell-based or functional assay
# [25] = biological target: Env of 644039.c01b-CM235LucR.T2A.11 virus (HIV-1); assay: cell-based or functional assay
# [26] = biological target: Env of 427299.c12.KL.Q169K/I181L virus (HIV-1); assay: cell-based or functional assay
# [27] = biological target: Env of CM244NW.4.K169Q virus (HIV-1); assay: cell-based or functional assay
# [28] = biological target: Env of 703357.2.Q169KI181L virus (HIV-1); assay: cell-based or functional assay
# [29] = biological target: Env of Du422.1.LucR.T2A.ecto virus (HIV-1); assay: cell-based or functional assay
# [30] = biological target: Env of Ce1086_B2.LucR.T2A.ecto virus (HIV-1); assay: cell-based or functional assay
# [31] = biological target: Env of 427299.c12 virus (HIV-1); assay: cell-based or functional assay
# [32] = biological target: AE.A244 V1V2 Tags (HIV-1)
# [33] = biological target: AE.A244 gD+ gp120 (HIV-1); assay: ELISA
# [34] = biological target: AE.A244 V1V2 Tags (HIV-1); assay: ELISA; remark: listed apart in the source
# [35] = biological target: AE.A244 gp120 (HIV-1); assay: ELISA
# [36] = biological target: AE.A244 gp120 delta 11 (HIV-1); assay: ELISA
# [37] = biological target: A.Q23 V1V2 tags (HIV-1); assay: ELISA
# [38] = biological target: 92TH023 V2 cyclic peptide (HIV-1); assay: RPMI 8866 cell adhesion to coated peptide, mAb 10 ug/ml
# [39] = biological target: AE.A244 gp120 (HIV-1)
# [40] = biological target: AE.427299 gp120D11 (HIV-1); assay: ELISA
# [41] = biological target: AE.A244 gp120 D11/K169V/V172E/H173Y (HIV-1); assay: ELISA
# [42] = biological target: AE.427299 gp120D11/Q169K (HIV-1); assay: ELISA
# [43] = biological target: AE.A244 gp120 delta 11 (HIV-1); assay: ELISA; remark: listed apart in the source
# [44] = biological target: AE.A244 gp120D11/K169V (HIV-1); assay: ELISA
# [45] = biological target: α4β7 on RPMI 8866 cells (UniProt P13612)
# [46] = biological target: α4β7 on RPMI 8866 cells (UniProt P13612); assay: cells preincubated with ACT-1, adhesion to MADCAM-1 (competitor; 2 ug/ml)
# [47] = biological target: Env of AE.CM235 on infected CD4+ T cells (HIV-1); assay: flow cytometry on IMC CM235-infected CD4+ T cells, 10 ug/ml, negative control
# [48] = biological target: Env of AE.CM235 on infected CD4+ T cells (HIV-1)
# [49] = biological target: J08 C.97ZA012V1V2N156QN160Q (HIV-1); assay: ELISA
# [50] = biological target: AE.A244 gp120 N160K (HIV-1); assay: ELISA
# [51] = biological target: C.1086 gp120 Δ7 (HIV-1); assay: ELISA
# CH59 (antibody), sequence (VH): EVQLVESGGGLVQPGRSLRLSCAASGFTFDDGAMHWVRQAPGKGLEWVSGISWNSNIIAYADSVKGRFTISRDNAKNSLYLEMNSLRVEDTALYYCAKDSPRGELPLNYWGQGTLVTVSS
# CH59 (antibody), sequence (VL): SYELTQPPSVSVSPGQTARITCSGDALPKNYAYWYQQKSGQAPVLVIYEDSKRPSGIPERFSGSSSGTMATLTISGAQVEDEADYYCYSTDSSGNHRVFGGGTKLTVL
# CH01 (antibody), sequence (heavy, form in doubt): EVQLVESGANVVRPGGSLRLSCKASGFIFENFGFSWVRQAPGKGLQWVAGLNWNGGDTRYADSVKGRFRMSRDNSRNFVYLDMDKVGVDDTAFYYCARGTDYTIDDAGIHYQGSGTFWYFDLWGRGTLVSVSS
# CH01 (antibody), sequence (light, form in doubt): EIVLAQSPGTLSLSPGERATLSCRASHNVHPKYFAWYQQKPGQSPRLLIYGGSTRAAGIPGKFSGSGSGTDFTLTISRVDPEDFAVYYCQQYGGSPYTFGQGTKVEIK
substance,measurement,setting,value
PG9 (antibody),pEC50,[1],6.55
same,pEC50,[2],6.56
same,pEC50,[3],9.52
PG16 (antibody),pEC50,[3],7.99
CH01 (antibody),pEC50,[4],8.77
same,"ID50 assayed in TZM-bl cells, CM244NW.6.I181L",[5],0.03 µg/mL
same,"ID50 assayed in A3R5.7 cells, 1051.C22.LucR.T2A.ecto",[6],> 25 µg/mL
same,"ID50 assayed in A3R5.7 cells, CM235-2.LucR.T2A.ecto",[7],0.04 µg/mL
same,"ID50 assayed in TZM-bl cells, TH023.6.I181L",[8],> 25 µg/mL
same,"ID50 assayed in TZM-bl cells, 427299.c12.Q169K",[9],0.18 µg/mL
same,"ID50 assayed in TZM-bl cells, TH023.6.K169Q",[10],22.8 µg/mL
same,"ID50 assayed in TZM-bl cells, 703357.c02",[11],> 25 µg/mL
same,"ID50 assayed in A3R5.7 cells, SC22.3C2.LucR.T2A.ecto",[12],> 25 µg/mL
same,"ID50 assayed in TZM-bl cells, 703357.2.I181L",[13],> 25 µg/mL
same,"ID50 assayed in A3R5.7 cells, CM244.c01.ETH2220LucR.T2A.4",[14],0.33 µg/mL
same,"ID50 assayed in TZM-bl cells, 703357.2.Q169KR170QI181L",[15],> 25 µg/mL
same,"ID50 assayed in TZM-bl cells, CM244.ec1",[16],0.02 µg/mL
same,"ID50 assayed in A3R5.7 cells, Ce1176 A3.LucR.T2A.ecto",[17],0.04 µg/mL
same,"ID50 assayed in TZM-bl cells, 703357.2.Q169KR170Q",[18],> 25 µg/mL
same,"ID50 assayed in TZM-bl cells, TH023.6",[19],> 25 µg/mL
same,"ID50 assayed in TZM-bl cells, 427299.c12.H81L",[20],0.16 µg/mL
same,"ID50 assayed in A3R5.7 cells, RHPA.LucR.T2A.ecto",[21],8.2 µg/mL
same,"ID50 assayed in A3R5.7 cells, WITO.LucR.T2A.ecto",[22],0.05 µg/mL
same,"ID50 assayed in TZM-bl cells, 703357.2.Q169K",[23],> 25 µg/mL
same,"ID50 assayed in A3R5.7 cells, Du151.2.LucR.T2A.ecto",[24],1.51 µg/mL
same,"ID50 assayed in A3R5.7 cells, 644039.c01b-CM235LucR.T2A.11",[25],> 25 µg/mL
same,"ID50 assayed in TZM-bl cells, 427299.c12.KL.Q169K/I181L",[26],0.15 µg/mL
same,"ID50 assayed in TZM-bl cells, CM244NW.4.K169Q",[27],0.05 µg/mL
same,"ID50 assayed in TZM-bl cells, 703357.2.Q169KI181L",[28],> 25 µg/mL
same,"ID50 assayed in A3R5.7 cells, Du422.1.LucR.T2A.ecto",[29],> 25 µg/mL
same,"ID50 assayed in A3R5.7 cells, Ce1086 B2.LucR.T2A.ecto",[30],> 25 µg/mL
same,"ID50 assayed in TZM-bl cells, 427299.c12",[31],0.09 µg/mL
same,pKd,[32],6.48
same,koff,[32],0.0076 s⁻¹
same,kon,[32],23000 M⁻¹ s⁻¹
same,pEC50,[33],9.05
same,pEC50,[34],8.05
same,pEC50,[35],8.89
same,pEC50,[36],9.33
same,pEC50,[37],< 7.18
same,pEC50,[3],< 6.18
same,% inhibition,[38],-11.2%
same,pIC50,[39],7.00 to 8.00
same,EC50,[40],> 10 µg/mL
same,EC50,[41],0.93 µg/mL
same,EC50,[42],> 10 µg/mL
same,EC50,[43],0.35 µg/mL
same,EC50,[44],0.13 µg/mL
ACT-1 (antibody),% inhibition,[45],53.3%
same,% inhibition,[46],71.3%
Synagis (antibody),% of p24+ cells stained (background),[47],11%
same,FITC MFI,[48],3600
CH59 (antibody),pEC50,[49],< 6.18
same,pEC50,[50],10.40
same,pEC50,[51],10.15
same,pEC50,[1],< 6.18
A32 (antibody),% positive cells,[48],94%
same,FITC MFI,[48],19900
